Experimental data published in patent US20240181022A1, “AMURINS LYSINS, AND LYSIN-ANTIMICROBIAL PEPTIDE (AMP) CONSTRUCTS ACTIVE AGAINST GRAM-NEGATIVE BACTERIA” (priority 2021, published 2024).
Where two headings read alike, the source gives them in different places.

Assays:
[1] = system: A. xylosoxidans; format: cell-based, Achromobacter xylosoxidans
Procedure: (§1) MIC values were determined using a modification of the standard broth microdilution reference method defined by the Clinical and Laboratory Standards Institute (CLSI), CLSL. 2015. Methods for Dilution Antimicrobial Susceptibility Tests for Bacteria That Grow Aerobically; Approved Standard-10th Edition. Clinical and Laboratory Standards Institute, Wayne, PA. The modification was based on the replacement of Mueller Hinton Broth with either CAA media (with and without NaCl) or CAA supplemented with 2.5% human serum. MIC is the minimum concentration of peptide sufficient to suppress at least 80% of the bacterial growth compared to control.
(§2) The MICs for were determined as described below using the broth microdilution method for meropenem, GN370, AM1, AM2, and AM3. The results are shown below in Tables 8-12.
The activity of GN370 and AM1 was evaluated against various bacterial isolates, including mucoid and α-hemolytic isolates of P. aeruginosa, MDR isolates, and carbapenem-resistant isolates.

[2] = system: A. dolens; test: MIC by broth microdilution against A. dolens; format: cell-based, Achromobacter dolens; settings: A. dolens isolates
Procedure: as §1
(§3) Based on these nine most prevalent strains, direct lytic agents, including GN370, AM1, AM2, and AM3, were evaluated against various isolates from each of the 9 strains. MICs and MBECs (Example 3) were determined, and a sputum inhibition test was conducted, as described below in Example 5.
as §2

[3] = system: B. gladioli; test: MIC by broth microdilution against B. gladioli; format: cell-based, Burkholderia gladioli; settings: B. gladioli isolates
Procedure: as §1, §3, §2

[4] = system: P. apista; test: MIC by broth microdilution against P. apista; format: cell-based, Pandoraea apista
Procedure: as §1, §3, §2

[5] = system: A. xylosoxidans; settings: A. xylosoxidans (15); 2-hour treatment
Procedure: (§4) Biofilms are then washed and treated with e.g., a 2-fold dilution series of the lysin in TSBg at e.g., 37° C. for 24 hours. After treatment, wells are washed, air-dried at e.g., 37° C. and stained with e.g., 0.05% crystal violet for 10 minutes.
(§5) The antibiofilm activity of GN370, AM1, AM2, and AM3 was evaluated against various Gram-negative bacteria prevalent in cystic fibrosis patients, including P. aeruginosa, S. maltophilia, and A. xylosoxidans.
(§6) The MBEC (after 2-hour treatments) was determined as described in Jones and Wozniak, PsI Produced by Mucoid Pseudomonas aeruginosa Contributes to the Establishment of Biofilms and Immune Evasion, Am. […] Microbiol.

[6] = system: B. multivorans; settings: B. multivorans (15); 2-hour treatment
Procedure: as §4, §5, §6

[7] = system: S. maltophilia
Procedure: as §4, §5, §6

[8] = system: A. xylosoxidans; test: Time-kill assay in cystic fibrosis patient sputum, A. xylosoxidans; format: cell-based, Achromobacter xylosoxidans
Source text: Sputum from 5 cystic fibrosis patients was pooled. The resulting mixture was not filtered, as it was very dense and not amenable to sterilization by filtration. Sputum is known to be a complex mixture of DNA, carbohydrates, and lipids ([…], 2016). As used herein, the term “sputum” refers to the mucus present in the respiratory tract of an animal, such as a human. Sputum may increase in thickness due to the irritation or infection, including bacterial infection, and in some instances, may be expelled by the animal while coughing. In certain instances, cystic fibrosis may be characterized by the presence of a thick, sticky mucus or sputum present in the lungs of cystic fibrosis patients. The activity of GN370, AM1, AM2, AM3, and meropenem was determined in the sputum using a time-kill assay format as disclosed in Zhang et al., Antimicrobial peptide therapeutics for cystic fibrosis, Antimicrobial Agents Chemother. 2005; 49(7):2921-2927. […] Untreated controls were included in addition to pretreatment plating (t=0) for a baseline CFU determination. Activity was also determined in the absence of sputum for comparison to activity observed in the presence of sputum.

[9] = system: S. maltophilia; test: Serial passage resistance development study, S. maltophilia; format: cell-based, Stenotrophomonas maltophilia; settings: S. maltophilia, day 28, triplicate
[10] = system: B. gladioli; format: cell-based, Burkholderia gladioli; settings: B. gladioli (15); 2-hour treatment
Procedure: The MBEC (after 2-hour treatments) was determined as described in Jones and Wozniak, PsI Produced by Mucoid Pseudomonas aeruginosa Contributes to the Establishment of Biofilms and Immune Evasion, Am. Soc. Microbiol. 2017, 8(3):e00864-17. Meropenem and tobramycin were included as controls and were both poorly active, with MBEC90 values of >256 μg/mL (data not shown).

[11] = system: S. maltophilia; remark: listed apart in the source
[12] = system: P. aeruginosa
[13] = Achromobacter xylosoxidans, N 11 (Table 26)
[14] = Pandoraea apista, N 11 (Table 26)
[15] = S. maltophilia (26), 2-hour treatment
[16] = MDR S. maltophilia isolates (n = 8)
[17] = Stenotrophomonas maltophilia, N 12 (Table 26)
[18] = carbapenem-resistant S. maltophilia isolates (n = 21)
[19] = P. aeruginosa (28), 2-hour treatment

B1: GN370: lysin-AMP construct, SEQ ID NO: 149: MIDR, FIRL and NPTH moieties N-terminal to GN202 lysin (protein)
chain: MIDRFIRLNPTHGPRRPRRPGRRAPVRTSQRGIDLIKSFEGLRLSAYQDSVGVWTIGYGTTRGVTRYMTITVEQAERMLSNDIQRFEPELDRLAKVPLNQNQWDALMSFVYNLGAANLASSTLLDLLNKGDYQGAADQFPHWVNAGGKRLDGLVKRRAAERALFLEPLS
modifications: GN370 lysin
In the case of B1, the MIC50 ([1]; A. xylosoxidans isolates) is reported as 8 µg/mL, the MIC90 ([1]; A. xylosoxidans isolates) is reported as over 32 µg/mL and the MIC ([1]; A. xylosoxidans test organism of the sputum time-kill assay) is reported as “GN370 (MIC = 0.25)”. It also gave an MIC50 [1, 13] of over 64 µg/mL, an MIC90 [1, 13] of over 64 µg/mL and an MIC50 [2] of 32 µg/mL. For the same molecule, the MIC90 [2] was over 32 µg/mL, the MIC50 [3] was over 32 µg/mL and the MIC90 [3] was over 32 µg/mL. For the same molecule, the MIC50 ([4]; P. apista isolates) was over 32 µg/mL, the MIC90 ([4]; P. apista isolates) was over 32 µg/mL and the MIC50 [4, 14] was over 64 µg/mL. For the same molecule, the MIC90 [4, 14] was over 64 µg/mL, the “MIC Range” value [4, 14] was over 64 µg/mL and the MBEC50 [5] was 8 µg/mL. It also gave an MBEC90 [5] of over 256 µg/mL, an MBEC50 [6] of 8 µg/mL and an MBEC90 [6] of 64 µg/mL. For the same molecule, the “antibiofilm activity (MBEC) against S. maltophilia” value ([7]; 2-hour treatments) was “highly active”, the MBEC50 [7, 15] was 1 µg/mL and the MBEC90 [7, 15] was 2 µg/mL. The “MBEC Range” value [7, 15] was 0.064-4 ^ μg/mL, the “effect of sputum on antibacterial activity” value ([8]; 10% CF sputum vs no sputum) was “none of GN370, AM1, AM2, and AM3 was inhibited” and the “Log10 CFU/mL of sputum” value ([8]; absence of sputum, 1 hr) was 3.7 Log10 CFU/mL of sputum. The “Log10 CFU/mL of sputum” value ([8]; absence of sputum, 3 hr) was 3.3 Log10 CFU/mL of sputum, the “Log10 CFU/mL of sputum” value ([8]; absence of sputum, 24 hr) was 2.3 Log10 CFU/mL of sputum and the “Log10 CFU/mL of sputum” value ([8]; presence of 10% sputum, 1 hr) was 3.6 Log10 CFU/mL of sputum. For the same molecule, the “Log10 CFU/mL of sputum” value ([8]; presence of 10% sputum, 3 hr) was 3.3 Log10 CFU/mL of sputum, the “Log10 CFU/mL of sputum” value ([8]; presence of 10% sputum, 24 hr) was 2.3 Log10 CFU/mL of sputum and the “CFU reduction by 3 hours” value ([8]; time-kill) was about 2 log10. The “CFU reduction by 24 hours” value ([8]; time-kill) was over 3 log10, the “change in MIC over serial passage” value [9] was “no increase in MIC” and the MBEC50 [10] was 256 µg/mL. For the same molecule, the MIC50 [11, 16] was 0.25 µg/mL, the MIC90 [11, 16] was 0.5 µg/mL and the “MIC Range” value ([11]; MDR S. maltophilia isolates (n = 8), in µg/mL) was 0.0625-0.5. The MIC50 ([11]; S. maltophilia isolates) was 0.5 µg/mL, the MIC90 ([11]; S. maltophilia isolates) was 2 µg/mL and the “MIC Range” value ([11]; S. maltophilia isolates, in µg/mL) was 0.03-2. For the same molecule, the MIC ([11]; S. maltophilia test organism of the sputum time-kill assay) was “GN370 (MIC = 0.5)”, the MIC50 [11, 17] was 2 µg/mL and the MIC90 [11, 17] was 8 µg/mL. The “MIC Range” value [11, 17] was 0.25 to 8 µg/mL, the “GN370 MIC” value ([11]; XDR S. maltophilia isolate AU29729) was 1 µg/mL and the “GN370 MIC” value ([11]; XDR S. maltophilia isolate AU29873) was 0.5 µg/mL. The “GN370 MIC” value ([11]; XDR S. maltophilia isolate AU30243) was 1 µg/mL, the “GN370 MIC” value ([11]; XDR S. maltophilia isolate AU30793) was 1 µg/mL and the “GN370 MIC” value ([11]; XDR S. maltophilia isolate AU32079) was 0.03125 µg/mL. The “GN370 MIC” value ([11]; XDR S. maltophilia isolate AU33199) was 0.0625 µg/mL, the “GN370 MIC” value ([11]; XDR S. maltophilia isolate AU33860) was 2 µg/mL and the “GN370 MIC” value ([11]; XDR S. maltophilia isolate AU33921) was 2 µg/mL. The “GN370 MIC” value ([11]; XDR S. maltophilia isolate AU34723) was 2 µg/mL, the “GN370 MIC” value ([11]; XDR S. maltophilia isolate AU35419) was 2 µg/mL and the “GN370 MIC” value ([11]; XDR S. maltophilia isolate AU35661) was 0.0625 µg/mL. The “GN370 MIC” value ([11]; XDR S. maltophilia isolate AU36631) was 0.5 µg/mL, the “GN370 MIC” value ([11]; XDR S. maltophilia isolate AU36888) was 0.25 µg/mL and the “GN370 MIC” value ([11]; XDR S. maltophilia isolate AU37239) was 1 µg/mL. For the same molecule, the “GN370 MIC” value ([11]; XDR S. maltophilia isolate AU37260) was 0.5 µg/mL, the “GN370 MIC” value ([11]; XDR S. maltophilia isolate AU37689) was 0.25 µg/mL and the “GN370 MIC” value ([11]; XDR S. maltophilia isolate AU37737) was 2 µg/mL. The MIC50 ([11]; XDR isolates of S. maltophilia) was 1 µg/mL, the MIC Range ([11]; XDR isolates of S. maltophilia, in µg/mL) was 0.03125-2 and the “activity (MIC) against S. maltophilia isolates” value ([11]; all tested isolates, Tables 8-12) was “highly active”. The “GN370 MIC50” value [11, 18] was 0.5 µg/mL, the “GN370 MIC90” value [11, 18] was 2 µg/mL and the “GN370 MIC Range” value ([11]; carbapenem-resistant S. maltophilia isolates (n = 21), in µg/mL) was 0.03-2. The “antibiofilm activity (MBEC) against P. aeruginosa” value ([12]; 2-hour treatments) was “highly active”, the MBEC50 ([12]; MDR and XDR P. aeruginosa (9)) was 2 µg/mL and the MBEC90 ([12]; MDR and XDR P. aeruginosa (9)) was 4 µg/mL. The “MBEC Range” value ([12]; MDR and XDR P. aeruginosa (9)) was 1 to 4 µg/mL, the “Number of isolates at MBEC 1 μg/mL” value ([12]; MDR and XDR P. aeruginosa (9)) was 4 and the “Number of isolates at MBEC 2 μg/mL” value ([12]; MDR and XDR P. aeruginosa (9)) was 4. For the same molecule, the “Number of isolates at MBEC 4 μg/mL” value ([12]; MDR and XDR P. aeruginosa (9)) was 1, the MBEC50 [12, 19] was 1 µg/mL and the MBEC90 [12, 19] was 2 µg/mL. For the same molecule, the “MBEC Range” value [12, 19] was 0.064-4 ^ μg/mL.
